Experimental data reported in patent publication US20180142222.
Read-outs that look alike come from different tables or passages of the source.

Key:
[1] = target: Cas9HNH (Cy3/Cy5-labelled reporter Cas9; dCas9HNH for binding data) C80S,C574S,S355C,S867C (Streptococcus pyogenes) (UniProt Q99ZW2); conditions: direct binding assay estimate
[2] = target: Cas9hinge (Cy3/Cy5-labelled reporter Cas9) C80S,C574S,D435C,E945C (Streptococcus pyogenes) (UniProt Q99ZW2); conditions: bound but (ratio)A indistinguishable from apo

## full-length sgRNA ; PAM-distal mismatch DNA
[1]; (ratio)A falls with mismatch number, dCas9 gives stable footprint on these substrates
  binding: > 89 % bound

## full-length sgRNA ; on-target DNA
[1]; large FRET increase on target DNA
  binding: > 89 % bound

## sgRNA delta-spacer1-20
[2]
  binding: > 95 % bound
